# Molecular target: VASP-EVH1 (human VASP aa1-115, GST cleaved with thrombin) (human, UniProt P50552 1-115)
# Experiment: ITC
# Chain of VASP-EVH1 (human VASP aa1-115, GST cleaved with thrombin) (P50552 1-115): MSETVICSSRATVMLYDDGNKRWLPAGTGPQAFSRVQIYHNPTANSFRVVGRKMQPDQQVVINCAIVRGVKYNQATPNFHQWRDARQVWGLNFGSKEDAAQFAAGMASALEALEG
binder,measurement,value
Ac-SEDNLPPPPAEFSYP-NH2 [15-mer WAVE2-derived peptide Ac-SEDNLPPPPAEFSYP-NH2],Kd,250 µM

# Reference: publication PMC12232546 (Proceedings of the National Academy of Sciences of the …, 2025)
